Laboratory results reported in patent US7109015B2, “Removal of N-terminal methionine from proteins by engineered methionine aminopeptidase” (Academia Sinica, priority 2004, dated 2006).
Values joined by “and” are separate entries in the source; they are usually repeats but may differ in a detail not shown here. Identical values can stand only once. Like-named read-outs stand apart in the source and are kept apart here.

Tests used:
[1] = tested on: synthetic oligopeptides; type: biochemical; details: for Specific activity (unit/mg): 4 mM oligopeptide, pH 7.5, 37° C.
Description: The oligopeptide substrates used in this experiment were synthesized on the 432A Synergy peptide synthesizer (Applied Biosystems, Foster, Calif., USA). The enzymatic activity of purified MetAP was assayed as described by Ben-Bassat et al., 1987. Briefly, the diluted MetAP enzyme in 10 μl was added to 90 μl of the substrate solution containing 4 mM oligopeptide, 0.1 M potassium phosphate buffer, pH 7.5 and 0.2 mM CoCl2, incubated at 37° C. for 10 min and stopped in boiling water for 2 min. After addition of 0.9 ml of color development mixture containing 0.2 mg of L-amino acid oxidase, 0.03 mg of horseradish peroxidase and 0.2 mg of o-dianisidine in 0.1 M Tris-HCl, pH 7.4, the mixtures were incubated for 10 min at 37° C., and the optical density at 440 nm was recorded. One unit of activity is defined as 1 μmol of amino acids produced per min under the assay conditions and the pure Met was used as standard. The N-terminal residues of the MetAP-treated oligopeptide were further verified by Edman degradation.

[2] = tested on: Met-tagged onconase; assay: In vivo catalytic activity of MetAPs co-expressed with Met-tagged onconase in E. coli BL21(DE3); N-terminus by Edman degradation; type: cell-based
From the text: Residues Tyr168, Met206 and Gln233 in the putative substrate-binding site of E. coli MetAP were mutated by site-directed mutagenesis based on the crystal structure and amino acid sequence alignment of MetAPs (Ben-Bassat et al., 1987; Lowther et al., 1999; Walker et al., 1999). For the expression of secretory ribonucleases, the ribonuclease gene was cloned and expressed as described previously (Huang et al., 1998).
Most of the co-expressed target protein, e.g., onconase or RC-RNase L1, existed in insoluble cell lysate. They were denatured, renatured and purified as described previously (Liao et al., 2003). The purified ribonucleases were stored in 20 mM sodium phosphate, pH 7.0, for pyroglutamate formation at the N-terminus. Alternatively, the ribonuclease secreted into culture medium through pe1B system was concentrated and purified to electrophoretical homogeneity at a yield of 1˜5 mg per 1 liter of culture (Huang et al., 1998).

[3] = substrate MAA-Onc, in vivo in E. coli
[4] = substrate MAG-Onc, in vivo in E. coli
[5] = substrate MAP-Onc, in vivo in E. coli
[6] = substrate MLA-Onc, in vivo in E. coli
[7] = substrate MLG-Onc, in vivo in E. coli
[8] = substrate MLH-Onc, in vivo in E. coli
[9] = substrate MLL-Onc, in vivo in E. coli
[10] = substrate MLN-Onc, in vivo in E. coli
[11] = substrate MLS-Onc, in vivo in E. coli
[12] = substrate MLV-Onc, in vivo in E. coli
[13] = substrate MQA-Onc, in vivo in E. coli
[14] = substrate MQM-Onc, in vivo in E. coli
[15] = substrate MQN-Onc, in vivo in E. coli
[16] = substrate MQT-Onc, in vivo in E. coli

B1: MetAP-*TG (protein)
chain: AISIKTPEDIEKMRVAGRLAAEVLEMIEPYVKPGVSTGELDRICNDYIVNEQHAVSACLGYHGYPKSVCISINEVVCHGIPDDAKLLKDGDIVNIDVTVIKDGFHGDTSKMFIVGKPTIMGERLCRITQESLYLALRMVKPGINLREIGAAIQKFVEAEGFSVVREYCGHGIGRGFHEEPQVLHYDSRETNVVLKPGMTFTIEPTVNAGKKEIRTMKDGWTVKTKDRSLSAGYEHTIVVTDNGCEILTLRKDDTIPAIISHDE
[1]; oligopeptides ranging from tetra- to dodecapeptides with Ala at the penultimate site
  In vitro catalytic activity: high catalytic activity
[1]; substrate MADY (SEQ ID NO:7)
  Specific activity (unit/mg): 72 ± 10 unit/mg
[1]; substrate MADYLT (SEQ ID NO:8)
  Specific activity (unit/mg): 116 ± 4 unit/mg
[1]; substrate MQDYLT (SEQ ID NO:9)
  Specific activity (unit/mg): 0.42 ± 0.02 unit/mg
[1]; substrate […] (SEQ ID NO:5)
  Specific activity (unit/mg): 73 ± 15 unit/mg
[1]; substrate […] (SEQ ID NO:6)
  Specific activity (unit/mg): 0.59 ± 0.07 unit/mg
[2]; MQD-initiated onconase or GST, pET29b/pET22b versus same vector
  Lower efficiency of Met removal with MetAP and target on separate vectors: 10–15 % less
[2]; [3]
  Catalytic activity (%): percent of penultimate residue removed: 25%
  Catalytic activity (%): removal of N-terminal Met: 100%
[2]; substrate MAD-Onc, in vivo in E. coli
  Catalytic activity (%): removal of N-terminal Met: 99% and 100%
[2]; substrate MAE-Onc, in vivo in E. coli
  Catalytic activity (%): removal of N-terminal Met: 96%
[2]; substrate MAF-Onc, in vivo in E. coli
  Catalytic activity (%): removal of N-terminal Met: 100%
[2]; [4]
  Catalytic activity (%): percent of penultimate residue removed: 57%
  Catalytic activity (%): removal of N-terminal Met: 80%
[2]; substrate MAK-Onc, in vivo in E. coli
  Catalytic activity (%): removal of N-terminal Met: 100%
[2]; substrate MAL-Onc, in vivo in E. coli
  Catalytic activity (%): removal of N-terminal Met: 100%
[2]; substrate MAM-Onc, in vivo in E. coli
  Catalytic activity (%): removal of N-terminal Met: 96%
[2]; substrate MAN-Onc, in vivo in E. coli
  Catalytic activity (%): removal of N-terminal Met: 100%
[2]; [5]
  Catalytic activity (%): percent of penultimate residue removed: 38%
  Catalytic activity (%): removal of N-terminal Met: 72%
[2]; substrate MAQ-Onc, in vivo in E. coli
  Catalytic activity (%): removal of N-terminal Met: 97%
[2]; substrate MAR-Onc, in vivo in E. coli
  Catalytic activity (%): removal of N-terminal Met: 94%
[2]; substrate MAV-Onc, in vivo in E. coli
  Catalytic activity (%): removal of N-terminal Met: 100%
[2]; substrate MDD-Onc, in vivo in E. coli
  Catalytic activity (%): removal of N-terminal Met: 68%
[2]; substrate MED-Onc, in vivo in E. coli
  Catalytic activity (%): removal of N-terminal Met: 33%
[2]; substrate MFA-Onc, in vivo in E. coli
  Catalytic activity (%): removal of N-terminal Met: 2%
[2]; substrate MFD-Onc, in vivo in E. coli
  Catalytic activity (%): removal of N-terminal Met: 5%
[2]; substrate MGD-Onc, in vivo in E. coli
  Catalytic activity (%): removal of N-terminal Met: 95%
[2]; substrate MHD-Onc, in vivo in E. coli
  Catalytic activity (%): removal of N-terminal Met: 92%
[2]; substrate MIA-Onc, in vivo in E. coli
  Catalytic activity (%): removal of N-terminal Met: 36%
[2]; substrate MID-Onc, in vivo in E. coli
  Catalytic activity (%): removal of N-terminal Met: 22%
[2]; substrate MKA-Onc, in vivo in E. coli
  Catalytic activity (%): removal of N-terminal Met: 2%
[2]; substrate MKD-Onc, in vivo in E. coli
  Catalytic activity (%): removal of N-terminal Met: 3%
[2]; [6]
  Catalytic activity (%): percent of penultimate residue removed: 100(100) %
  Catalytic activity (%): removal of N-terminal Met: 100(100) %
[2]; substrate MLD-Onc, in vivo in E. coli
  Catalytic activity (%): removal of N-terminal Met: 86% and 90%
[2]; [7]
  Catalytic activity (%): percent of penultimate residue removed: 100(100) %
  Catalytic activity (%): removal of N-terminal Met: 100(100) %
[2]; [8]
  Catalytic activity (%): percent of penultimate residue removed: 36%
  Catalytic activity (%): removal of N-terminal Met: 75%
[2]; [9]
  Catalytic activity (%): percent of penultimate residue removed: 24%
  Catalytic activity (%): removal of N-terminal Met: 88%
[2]; substrate MLM-Onc, in vivo in E. coli
  Catalytic activity (%): removal of N-terminal Met: 100%
[2]; [10]
  Catalytic activity (%): percent of penultimate residue removed: 58%
  Catalytic activity (%): removal of N-terminal Met: 92%
[2]; substrate MLP-Onc, in vivo in E. coli
  Catalytic activity (%): removal of N-terminal Met: 5%
[2]; [11]
  Catalytic activity (%): percent of penultimate residue removed: 59%
  Catalytic activity (%): removal of N-terminal Met: 82%
[2]; substrate MLT-Onc, in vivo in E. coli
  Catalytic activity (%): removal of N-terminal Met: 91%
[2]; [12]
  Catalytic activity (%): percent of penultimate residue removed: 27%
  Catalytic activity (%): removal of N-terminal Met: 76%
[2]; substrate MMD-Onc, first Met, in vivo in E. coli
  Catalytic activity (%): removal of N-terminal Met: 100%
[2]; substrate MMD-Onc, second Met, in vivo in E. coli
  Catalytic activity (%): percent of penultimate residue removed: 73%
[2]; substrate MND-Onc, in vivo in E. coli
  Catalytic activity (%): removal of N-terminal Met: 85%
[2]; substrate MPD-Onc, in vivo in E. coli
  Catalytic activity (%): removal of N-terminal Met: 93%
[2]; [13]
  Catalytic activity (%): percent of penultimate residue removed: 100(100) %
  Catalytic activity (%): removal of N-terminal Met: 100(100) %
[2]; substrate MQD-Onc, in vivo in E. coli
  Catalytic activity (%): removal of N-terminal Met: 91% and 90%
[2]; substrate MQD-Onc, in vivo in E. coli, listed as MetAP-M206T-Q233G
  Catalytic activity (%): removal of N-terminal Met: 91%
[2]; substrate MQDWL (SEQ ID NO:10)-Onc, solubility −, same vector
  Catalytic activity (%): removal of N-terminal Met: 91%
[2]; substrate MQDWL (SEQ ID NO:10)-Onc, solubility −, target in pET22b co-transformed with MetAP in pET29b
  Catalytic activity (%): removal of N-terminal Met: 80%
[2]; substrate MQE-Onc, in vivo in E. coli
  Catalytic activity (%): removal of N-terminal Met: 71%
[2]; substrate MQF-Onc, in vivo in E. coli
  Catalytic activity (%): removal of N-terminal Met: 80%
[2]; substrate MQK-Onc, in vivo in E. coli
  Catalytic activity (%): removal of N-terminal Met: 78%
[2]; [14]
  Catalytic activity (%): percent of penultimate residue removed: 59%
  Catalytic activity (%): removal of N-terminal Met: 100%
[2]; [15]
  Catalytic activity (%): percent of penultimate residue removed: 65%
  Catalytic activity (%): removal of N-terminal Met: 100%
[2]; substrate MQP-Onc, in vivo in E. coli
  Catalytic activity (%): removal of N-terminal Met: 25%
[2]; substrate MQR-Onc, in vivo in E. coli
  Catalytic activity (%): removal of N-terminal Met: 83%
[2]; [16]
  Catalytic activity (%): percent of penultimate residue removed: 26%
  Catalytic activity (%): removal of N-terminal Met: 76%
[2]; substrate MQW-Onc, in vivo in E. coli
  Catalytic activity (%): removal of N-terminal Met: 95%
[2]; substrate MRA-Onc, in vivo in E. coli
  Catalytic activity (%): removal of N-terminal Met: 2%
[2]; substrate MRD-Onc, in vivo in E. coli
  Catalytic activity (%): removal of N-terminal Met: 2%
[2]; substrate MSD-Onc, in vivo in E. coli
  Catalytic activity (%): removal of N-terminal Met: 99%
[2]; substrate MTD-Onc, in vivo in E. coli
  Catalytic activity (%): removal of N-terminal Met: 85%
[2]; substrate MVD-Onc, in vivo in E. coli
  Catalytic activity (%): removal of N-terminal Met: 80%
[2]; substrate MWA-Onc, in vivo in E. coli
  Catalytic activity (%): removal of N-terminal Met: 2%
[2]; substrate MWD-Onc, in vivo in E. coli
  Catalytic activity (%): removal of N-terminal Met: 2%
[2]; substrate MWD-Onc, in vivo in E. coli, listed as *TG
  Catalytic activity (%): removal of N-terminal Met: inactive
[2]; substrate MYA-Onc, in vivo in E. coli
  Catalytic activity (%): removal of N-terminal Met: 8%
[2]; substrate MYD-Onc, in vivo in E. coli
  Catalytic activity (%): removal of N-terminal Met: 1%
[2]; substrate MYD-Onc, in vivo in E. coli, listed as *TG
  Catalytic activity (%): removal of N-terminal Met: inactive
